Experimental data reported in patent publication US20110195494A1 (Boehringer Ingelheim, published 2011).
“And” between values parts separate entries of the source, which are not always exact repeats. Equal values may be shown once.

Legend:
[1] = molecular target: full length mouse DLL4 on overexpressing CHO or HEK293 cells (mouse) (UniProt Q9JI71); assay: FMAT, hNotch1/Fc on CHO-mDLL4
[2] = molecular target: recombinant human DLL4, C-terminally His-tagged extracellular domain (R&D Systems) (human) (UniProt Q9NR61); assay: cell-based or functional assay
[3] = molecular target: full length human DLL4 on overexpressing CHO or HEK293 cells (human) (UniProt Q9NR61); assay: cell-based or functional assay
[4] = molecular target: recombinant human DLL4, C-terminally His-tagged extracellular domain (R&D Systems) (human) (UniProt Q9NR61); assay: hDLL4/hNotch1-Fc competition AlphaScreen
[5] = molecular target: full length mouse DLL4 on overexpressing CHO or HEK293 cells (mouse) (UniProt Q9JI71); assay: FMAT competition, mDLL4 on cells, summary Table 21
[6] = molecular target: recombinant human DLL4, C-terminally His-tagged extracellular domain (R&D Systems) (human) (UniProt Q9NR61); assay: competition ELISA, summary Table 21
[7] = molecular target: full length mouse DLL4 on overexpressing CHO or HEK293 cells (mouse) (UniProt Q9JI71); assay: FMAT, hNotch1/Fc on CHO-mDLL4; remark: listed apart in the source
[8] = molecular target: cynomolgus DLL4 on overexpressing cells (cynomolgus (SEQ ID NO: 418 is the rhesus entry, stated 100% identical)); assay: FACS on CHO-cDLL4
[9] = molecular target: full length human DLL4 on overexpressing CHO or HEK293 cells (human) (UniProt Q9NR61); assay: FMAT competition, hDLL4 on cells, summary Table 21
[10] = molecular target: recombinant human DLL4, C-terminally His-tagged extracellular domain (R&D Systems) (human) (UniProt Q9NR61); assay: hDLL4/hNotch1-Fc competition ELISA
[11] = molecular target: recombinant human DLL4, C-terminally His-tagged extracellular domain (R&D Systems) (human) (UniProt Q9NR61); assay: hDLL4/hNotch1-Fc competition ELISA; remark: listed apart in the source
[12] = molecular target: full length human DLL4 on overexpressing CHO or HEK293 cells (human) (UniProt Q9NR61); assay: FACS on CHO-hDLL4
[13] = molecular target: recombinant human DLL4, C-terminally His-tagged extracellular domain (R&D Systems) (human) (UniProt Q9NR61); assay: binding ELISA, coated rhDLL4
[14] = molecular target: recombinant mouse DLL4, C-terminally His-tagged extracellular domain (R&D Systems) (mouse) (UniProt Q9JI71); assay: binding ELISA, coated rmDLL4
[15] = molecular target: recombinant human DLL4, C-terminally His-tagged extracellular domain (R&D Systems) (human) (UniProt Q9NR61); assay: SPR Biacore T100, hDLL4 on chip
[16] = molecular target: full length human DLL4 on overexpressing CHO or HEK293 cells (human) (UniProt Q9NR61); assay: FMAT, hNotch1/Fc on CHO-hDLL4
[17] = molecular target: recombinant human DLL4, C-terminally His-tagged extracellular domain (R&D Systems) (human) (UniProt Q9NR61); assay: affinity on hDLL4, summary Table 21 (method not named there)
[18] = molecular target: full length human DLL4 on overexpressing CHO or HEK293 cells (human) (UniProt Q9NR61); assay: FMAT, hNotch1/Fc on CHO-hDLL4; remark: listed apart in the source
[19] = molecular target: full length mouse DLL4 on overexpressing CHO or HEK293 cells (mouse) (UniProt Q9JI71); assay: FACS on CHO-mDLL4
[20] = molecular target: recombinant human DLL4, C-terminally His-tagged extracellular domain (R&D Systems) (human) (UniProt Q9NR61); assay: SPR, rhDLL4
[21] = molecular target: T1, full length mouse DLL4 on overexpressing CHO or HEK293 cells (mouse, UniProt Q9JI71 27-686); assay: FMAT, hNotch1/Fc on CHO-mDLL4, periplasmic extract
T1 construct: whole, on cells; also called CHO-mDLL4; mDLL4
Excerpt: (§1) All calculations are based on the FL1 total signal which comprises the average of the fluorescence per well times the number of counts per well.

[22] = molecular target: T1, full length mouse DLL4 on …; assay: FACS on HEK293-mDLL4 cells
Experimental: In order to determine the cynomologus cross-reactivity of the VHHs, a FACS binding experiment is performed. Cynomolgus DII4 expressing HEK293 cells (transient or stable transfection) are used for a titration binding experiment of the VHHs. After a 30 minutes incubation on ice, all samples are washed and detection is performed by applying anti-c-myc˜Alexa647 (Santa Cruz Biotechnology, Santa Cruz, Calif., USA). Human and mouse DII4 overexpressing HEK293 cells are taken as reference. The mean MCF value is determined on the FACS Array and used for calculation of the EC₅₀ value (see FIG. 9).

[23] = molecular target: T2, full length human DLL4 on overexpressing CHO or HEK293 cells (human, UniProt Q9NR61 27-685); assay: FMAT, hNotch1/Fc on CHO-hDLL4, periplasmic extract
T2 construct: also called CHO-hDLL4; HEK293-hDII4
Excerpt: as §1

Sequence of full length human DLL4 on overexpressing CHO or HEK293 cells (human) (Q9NR61 27-685 limits assumed): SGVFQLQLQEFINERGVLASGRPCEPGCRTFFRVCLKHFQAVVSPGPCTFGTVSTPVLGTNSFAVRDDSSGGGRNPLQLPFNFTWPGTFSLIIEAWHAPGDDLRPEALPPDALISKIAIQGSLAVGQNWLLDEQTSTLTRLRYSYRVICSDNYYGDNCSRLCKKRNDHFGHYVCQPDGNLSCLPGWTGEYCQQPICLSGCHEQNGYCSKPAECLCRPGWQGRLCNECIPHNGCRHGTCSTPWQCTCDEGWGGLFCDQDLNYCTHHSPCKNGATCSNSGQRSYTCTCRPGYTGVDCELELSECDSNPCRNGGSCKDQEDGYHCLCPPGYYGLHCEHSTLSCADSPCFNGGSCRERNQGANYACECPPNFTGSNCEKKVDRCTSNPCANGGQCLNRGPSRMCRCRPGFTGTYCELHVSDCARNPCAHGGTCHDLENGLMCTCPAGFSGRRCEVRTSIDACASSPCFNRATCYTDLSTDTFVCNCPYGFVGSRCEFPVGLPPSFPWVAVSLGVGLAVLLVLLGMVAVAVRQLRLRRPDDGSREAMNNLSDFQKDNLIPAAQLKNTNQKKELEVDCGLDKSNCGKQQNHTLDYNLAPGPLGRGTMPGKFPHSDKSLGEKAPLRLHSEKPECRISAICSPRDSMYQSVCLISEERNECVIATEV
Sequence of full length mouse DLL4 on overexpressing CHO or HEK293 cells (mouse) (Q9JI71 27-686): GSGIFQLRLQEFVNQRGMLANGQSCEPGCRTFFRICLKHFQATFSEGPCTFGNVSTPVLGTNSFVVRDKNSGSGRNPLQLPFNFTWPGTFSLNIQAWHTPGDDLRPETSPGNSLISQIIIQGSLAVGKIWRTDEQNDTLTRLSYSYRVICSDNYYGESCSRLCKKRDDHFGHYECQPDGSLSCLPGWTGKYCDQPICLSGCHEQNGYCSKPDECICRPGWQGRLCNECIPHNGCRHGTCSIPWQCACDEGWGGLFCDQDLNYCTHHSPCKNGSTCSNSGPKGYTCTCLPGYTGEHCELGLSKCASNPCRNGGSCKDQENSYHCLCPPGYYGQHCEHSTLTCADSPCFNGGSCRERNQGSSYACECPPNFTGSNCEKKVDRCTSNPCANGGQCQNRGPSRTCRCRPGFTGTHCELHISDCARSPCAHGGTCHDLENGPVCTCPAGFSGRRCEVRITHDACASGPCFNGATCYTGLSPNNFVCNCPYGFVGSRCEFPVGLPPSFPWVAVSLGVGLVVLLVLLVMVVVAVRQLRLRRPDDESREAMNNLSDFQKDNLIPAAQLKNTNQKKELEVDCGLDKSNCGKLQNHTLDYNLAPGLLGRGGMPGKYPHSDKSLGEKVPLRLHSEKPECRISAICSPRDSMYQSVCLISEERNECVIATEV
Sequence of recombinant human DLL4, C-terminally His-tagged extracellular domain (R&D Systems) (human) (Q9NR61 25-522): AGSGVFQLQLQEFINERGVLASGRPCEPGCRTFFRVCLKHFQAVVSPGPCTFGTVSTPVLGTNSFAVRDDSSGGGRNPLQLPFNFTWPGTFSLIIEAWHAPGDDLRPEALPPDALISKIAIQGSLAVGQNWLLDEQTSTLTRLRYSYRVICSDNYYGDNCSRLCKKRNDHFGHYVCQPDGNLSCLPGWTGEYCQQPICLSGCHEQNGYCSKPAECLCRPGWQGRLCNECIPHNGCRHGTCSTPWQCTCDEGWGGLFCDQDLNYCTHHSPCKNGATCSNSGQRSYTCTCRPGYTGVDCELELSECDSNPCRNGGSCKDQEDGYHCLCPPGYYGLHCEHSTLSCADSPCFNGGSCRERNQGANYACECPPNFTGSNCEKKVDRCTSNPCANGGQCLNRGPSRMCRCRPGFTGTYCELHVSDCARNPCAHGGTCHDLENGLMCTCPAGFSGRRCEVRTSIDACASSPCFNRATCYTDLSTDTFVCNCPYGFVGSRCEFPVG
T1 sequence (Q9JI71 27-686): as the sequence (Q9JI71 27-686) above
Sequence of recombinant mouse DLL4, C-terminally His-tagged extracellular domain (R&D Systems) (mouse) (Q9JI71 27-532): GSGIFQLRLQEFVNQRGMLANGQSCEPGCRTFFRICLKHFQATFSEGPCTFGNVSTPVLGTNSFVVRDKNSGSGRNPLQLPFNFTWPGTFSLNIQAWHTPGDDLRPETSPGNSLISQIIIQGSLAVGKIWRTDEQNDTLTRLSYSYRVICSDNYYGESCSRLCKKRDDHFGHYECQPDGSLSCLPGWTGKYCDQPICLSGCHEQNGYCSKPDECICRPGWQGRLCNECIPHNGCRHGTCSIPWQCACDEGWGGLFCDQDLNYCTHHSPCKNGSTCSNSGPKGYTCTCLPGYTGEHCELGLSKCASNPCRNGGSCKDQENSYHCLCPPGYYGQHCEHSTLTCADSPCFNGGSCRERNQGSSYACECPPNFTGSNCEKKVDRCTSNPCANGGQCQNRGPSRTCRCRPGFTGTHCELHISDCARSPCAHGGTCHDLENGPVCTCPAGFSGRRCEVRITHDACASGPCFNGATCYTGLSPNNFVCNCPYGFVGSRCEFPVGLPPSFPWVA
T2 sequence (Q9NR61 27-685 limits assumed): as the sequence (Q9NR61 27-685 limits assumed) above
Sequence of cynomolgus DLL4 on overexpressing cells (cynomolgus (SEQ ID NO: 418 is the rhesus entry, stated 100% identical)) (Q9NR61 other isoform, or with tags, fused parts or gaps limits assumed): as the sequence (Q9NR61 27-685 limits assumed) above, with I12V, T52S, N359S, L413R, N434S counted along it

B1: anti-DLL4 Fab fragment (of the Genentech anti-DLL4 mAb of US 2008/0014196) (Fab)
heavy: EVQLVESGGGLVQPGGSLRLSCAASGFTFTDNWISWVRQAPGKGLEWVGYISPNSGFTYYADSVKGRFTISADTSKNTAYLQMNSLRAEDTAVYYCARDNFGGYFDYWGQGTLVTVSS
light: DIQMTQSPSSLSASVGDRVTITCRASQDVSTAVAWYQQKPGKAPKLLIYSASFLYSGVPSRFSGSGSGTDFTLTISSLQPEDFATTYYCQQSYTGTVTFGQGTKVEIK
IC50 [1]: 3 nM and 1.6 nM | IC50 (nM) (experiment 1), DLL4 proliferation assay (HUVEC) [2]: 4.9 nM | IC50 (nM) (experiment 2), DLL4 proliferation assay (HUVEC) [2]: 5.6 nM | IC50, DLL4/Notch1 reporter assay [3]: 133 nM | IC50 [4]: 0.3 nM | IC50 [5]: 3 nM and 1.6 nM | IC50 [6]: 1.5 nM and 1.2 nM | IC50 [7]: 2.3 nM | EC50 [8]: 2.5 nM | IC50 [9]: 5.5 nM and 3.4 nM | IC50 [10]: 0.7 nM | IC50 [11]: 1.5 nM and 1.2 nM | EC50 [12]: 5.6 nM | EC50 [13]: 3 nM | EC50 (read off the curve) [13]: 0.8 nM | EC50 [14]: 3 nM | EC50 (read off the curve) [14]: 0.9 nM | Kd [15]: 1.5 nM | koff [15]: 0.00034 s⁻¹ | kon [15]: 230000 M⁻¹ s⁻¹ | IC50 [16]: 5.5 nM and 3.4 nM | Kd [17]: 1.5 nM | IC50 [18]: 5.4 nM | EC50 [19]: 2.1 nM | Kd [20]: 1.5 nM | koff [20]: 0.00034 s⁻¹ | kon [20]: 230000 M⁻¹ s⁻¹

B2: DLLBII101G08 (VHH)
VHH: EVQLVESGGGLVQAGGSLRLSCAASGRTFSSYAMAWFRQAPGKEREFVAAIRWSGGTAYYADSVQGRFTISRDNAKNTVYLQMNSLKPEDTAVYYCANRAADTRLGPYEYDYWGQGTQVTVSS
notes: also called DLLBII101G8; 101G8; not shown: C-terminal c-myc tag and His6 tag
FMAT mDLL4 % inhibition [21]: 92% | EC50 (read off the curve) [22]: 37 to 40 nM | FMAT hDLL4 % inhibition [23]: 91%
